Experimental data reported in patent US20220185898A1 (Alector, published 2022).

Key:
[1] = target: T1, biotinylated mouse Sortilin monomer (mouse, UniProt Q6PHU5 74-754, limits assumed, biotinylated); assay: MSD-SET, Fab
T1 construct: also called Bt-msSort
Description: (§1) Antibodies (20 nM in PBS) were coated onto standard bind MSD-ECL plates overnight at 4° C. or at room temperature for 30 min. Plates were then blocked with 1% BSA for 30 min with shaking at 700 rpm, followed by three washes with wash buffer (PB SF+0.05% Tween 20). SET samples were applied and incubated on the plates for 150 s with shaking at 700 rpm followed by one wash. Antigen captured on a plate was detected with 250 ng/ml sulfotag-labeled streptavidin in PBSF by incubation on the plate for 3 min. The plates were washed three times with wash buffer and then read on the MSD Sector Imager 2400 instrument using 1× Read Buffer T with surfactant. The percent free antigen was plotted as a function of titrated antibody in Prism and fit to a quadratic equation to extract the KD. To improve throughput, liquid handling robots were used throughout MSD-SET experiments, including SET sample preparation.

[2] = target: T2, mouse Sortilin expressed on 293 / HEK293T cells (mouse, UniProt Q6PHU5 74-825); assay: FACS, HEK293T + msSort
T2 construct: full-length recombinant mouse Sortilin; also called mSort; msSort
Description: (§2) Antibodies were diluted in FACS buffer (PBS+2% FBS+0.01% NaAzide). After incubation on ice for 1 h, cells were washed three times in FACS buffer and incubated with anti-human PE conjugated secondary antibody (BD Biosciences, 1:100 dilution) for 30 min on ice. Then cells were washed twice in 200 ul FACS buffer, and subsequently analyzed on a FACS Canto or iQE FACS screening instrument (Intellicyt Corp).

[3] = target: T3, human Sortilin expressed on 293 / HEK293T cells (human, UniProt Q99523 78-830); assay: FACS, HEK293T + hSort
T3 construct: full-length recombinant human Sortilin; also called hSort; SORT1
Description: as §2

[4] = target: T4, biotinylated human Sortilin monomer (human, UniProt Q99523 78-755, limits assumed, biotinylated (Sulfo-NHS-biotin)); assay: MSD-SET, Fab
T4 construct: monomer cut from the Fc fusion with IdeS; used unbiotinylated in solution in some formats; also called Bt-hSort; b-H Sort
Description: as §1

[5] = target: T4, biotinylated human Sortilin monomer; assay: ForteBio, Fab
Description: (§3) The affinity of the anti-Sortilin antibodies was determined by measuring their KD by ForteBio and MSD. […] Briefly, ForteBio affinity measurements were performed by loading immunoglobulins (IgGs) on-line onto AHQ sensors. Sensors were equilibrated off-line in assay buffer for 30 min and then monitored on-line for 60 seconds for baseline establishment. For avid binding measurement, sensors with loaded IgGs were exposed to 100 nM antigen (human or mouse Sortilin Fc fusion) for 3 min, afterwards they were transferred to assay buffer for 3 min for off-rate measurement. […] Monovalent binding measurements were obtained by loading human or mouse Sortilin Fc fusion antigens to AHQ sensor and followed by exposure to −100 nM Sortilin antibody Fab. […] Kinetics data were fit using a 1:1 binding model in the data analysis software provided by ForteBio.

[6] = target: T1, biotinylated mouse Sortilin monomer; assay: ForteBio, Fab
Description: as §3

| Binder | Kd [3] [nM] | Kd [2] [nM] | Kd [6] [nM] | further results |
| --- | --- | --- | --- | --- |
| S-82-3 Fab (Fab, V domains shown, Fab by papain digestion) VH: QLQLQESGPGLVKPSETLSLTCTVSGGSISSSDYYWGWIRQPPGKGLEWIGQIYYKGSTYYNPSLKSRVTISVDTSKNQFSLKLSSVTAADTAVYYCARGVGSGYSYGYRYFDYWGQGTLVTVSS VL: EIVLTQSPGTLSLSPGERATLSCRASQSVSSSYLAWYQQKPGQAPRLLIYGASSRATGIPDRFSGSGSGTDFTLTISRLEPEDFAVYYCQQSHVSPWTFGGGTKVEIK | – | – | – | binding result [1]: no binding |
| S-82-5 Fab (Fab, V domains shown, Fab by papain digestion) VH: QLQLQESGPGLVKPSETLSLTCTVSGGSIKSSEYYWGWIRQPPGKGLEWIGSIYRAGSTYYNPSLKSRVTISVDTSKNQFSLKLSSVTAADTAVYYCARGVGSGYSYGYRYFDYWGQGTLVTVSS VL: EIVLTQSPGTLSLSPGERATLSCRASQSVSSSYLAWYQQKPGQAPRLLIYGASSRATGIPDRFSGSGSGTDFTLTISRLEPEDFAVYYCQQSHVSPWTFGGGTKVEIK | – | – | – | binding result [1]: no binding |
| S-82-5 (antibody, V domains shown, IgG) VH: QLQLQESGPGLVKPSETLSLTCTVSGGSIKSSEYYWGWIRQPPGKGLEWIGSIYRAGSTYYNPSLKSRVTISVDTSKNQFSLKLSSVTAADTAVYYCARGVGSGYSYGYRYFDYWGQGTLVTVSS VL: EIVLTQSPGTLSLSPGERATLSCRASQSVSSSYLAWYQQKPGQAPRLLIYGASSRATGIPDRFSGSGSGTDFTLTISRLEPEDFAVYYCQQSHVSPWTFGGGTKVEIK | – | – | – | binding result [2]: no binding (tested: 0.39-50 nM antibody) |
| S-2-1 (antibody, V domains shown, IgG) VH: QVQLVQSGAEVKKPGASVKVSCKASGYTFGAYYMHWVRQAPGQGLEWMGWINPNSGFTRYAQKFQGRVTMTRDTSISTAYMELSRLRSDDTAVYYCARGKRSSGWYEGYGMDVWGQGTTVTVSS VL: DIQMTQSPSSLSASVGDRVTITCRASQSISSYLNWYQQKPGKAPKLLIYAASSLQSGVPSRFSGSGSGTDFTLTISSLQPEDFATYYCQQSDVSPITFGGGTKVEIK | 0.691 | 2.65 | – | – |
| S-2-11 (antibody, V domains shown, IgG) VH: QVQLVQSGAEVKKPGASVKVSCKASGYTFLAYYMHWVRQAPGQGLEWMGWINPSWGSTSYAQKFQGRVTMTRDTSISTAYMELSRLRSDDTAVYYCARGKRSSGWYEGYGMDVWGQGTTVTVSS VL: DIQMTQSPSSLSASVGDRVTITCRASQSISSYLNWYQQKPGKAPKLLIYAASSLQSGVPSRFSGSGSGTDFTLTISSLQPEDFATYYCQQSDVSPITFGGGTKVEIK | 0.377 | 1.54 | – | – |
| S-2-11 Fab (Fab, V domains shown, Fab by papain digestion) VH: QVQLVQSGAEVKKPGASVKVSCKASGYTFLAYYMHWVRQAPGQGLEWMGWINPSWGSTSYAQKFQGRVTMTRDTSISTAYMELSRLRSDDTAVYYCARGKRSSGWYEGYGMDVWGQGTTVTVSS VL: DIQMTQSPSSLSASVGDRVTITCRASQSISSYLNWYQQKPGKAPKLLIYAASSLQSGVPSRFSGSGSGTDFTLTISSLQPEDFATYYCQQSDVSPITFGGGTKVEIK | – | – | 7.59 | Kd [4]: 0.011 nM; Kd [5]: 0.261 nM |
| S-2-2 Fab (Fab, V domains shown, Fab by papain digestion) VH: QVQLVQSGAEVKKPGASVKVSCKASGYTFVAYYMHWVRQAPGQGLEWMGWINPNSGATRYAQKFQGRVTMTRDTSISTAYMELSRLRSDDTAVYYCARGKRSSGWYEGYGMDVWGQGTTVTVSS VL: DIQMTQSPSSLSASVGDRVTITCRASQSISSYLNWYQQKPGKAPKLLIYAASSLQSGVPSRFSGSGSGTDFTLTISSLQPEDFATYYCQQSDVSPITFGGGTKVEIK | – | – | 2.68 | Kd [1]: 0.79 nM |
| S-22-3 (antibody, V domains shown, IgG) VH: QVQLVQSGAEVKKPGSSVKVSCKASGGTFRSYAISWVRQAPGQGLEWMGGIIPGFGTAWYAQKFQGRVTITADESTSTAYMELSSLRSEDTAVYYCARQGRKTGYYYYYGMDVWGQGTTVTVSS VL: DIQMTQSPSTLSASVGDRVTITCRASQSISSWLAWYQQKPGKAPKLLIYKASSLESGVPSRFSGSGSGTEFTLTISSLQPDDFATYYCQQADGHITFGGGTKVEIK | 1.08 | 3.63 | – | – |
| S-22-7 (antibody, V domains shown, IgG) VH: QVQLVQSGAEVKKPGSSVKVSCKASGGTFSSYAISWVRQAPGQGLEWMGGIIPGFGRANYAQKFQGRVTITADESTSTAYMELSSLRSEDTAVYYCARQGRKTGYYYYYGMDVWGQGTTVTVSS VL: DIQMTQSPSTLSASVGDRVTITCRASQSISSWLAWYQQKPGKAPKLLIYKASSLESGVPSRFSGSGSGTEFTLTISSLQPDDFATYYCQQADGHITFGGGTKVEIK | 2.65 | 4.78 | – | – |
| S-15-3 (antibody, V domains shown, IgG) VH: QVQLVQSGAEVKKPGASVKVSCKASGYTFTSTYMSWVRQAPGQGLEWMGIINPYGGSTSYAQKFQGRVTMTRDTSTSTVYMELSSLRSEDTAVYYCARDPSGIAAAGPASRYYYGMDVWGQGTTVTVSS VL: EIVMTQSPATLSVSPGERATLSCRASQSVSSNLAWYQQKPGQAPRLLIYGASTRATGIPARFSGSGSGTEFTLTISSLQSEDFAVYYCQQARLGPWTFGGGTKVEIK | 5.25 | 17.9 | – | – |
| S-15-3 Fab (Fab, V domains shown, Fab by papain digestion) VH: QVQLVQSGAEVKKPGASVKVSCKASGYTFTSTYMSWVRQAPGQGLEWMGIINPYGGSTSYAQKFQGRVTMTRDTSTSTVYMELSSLRSEDTAVYYCARDPSGIAAAGPASRYYYGMDVWGQGTTVTVSS VL: EIVMTQSPATLSVSPGERATLSCRASQSVSSNLAWYQQKPGQAPRLLIYGASTRATGIPARFSGSGSGTEFTLTISSLQSEDFAVYYCQQARLGPWTFGGGTKVEIK | – | – | 0.769 | Kd [4]: 0.26 nM; Kd [1]: 0.11 nM; Kd [5]: 0.943 nM |
| S-15-14 (antibody, V domains shown, IgG) VH: QVQLVQSGAEVKKPGASVKVSCKASGYTFTSQYMSWVRQAPGQGLEWMGIINPYGGSTSYAQKFQGRVTMTRDTSTSTVYMELSSLRSEDTAVYYCARDPSGIAAAGPASRYYYGMDVWGQGTTVTVSS VL: EIVMTQSPATLSVSPGERATLSCRASQSVSSNLAWYQQKPGQAPRLLIYGASTRATGIPARFSGSGSGTEFTLTISSLQSEDFAVYYCQQARLGPWTFGGGTKVEIK | 5.25 | 19.4 | – | – |
| S-15-6 Fab (Fab, V domains shown, Fab by papain digestion) VH: QVQLVQSGAEVKKPGASVKVSCKASGYTFTSRYMSWVRQAPGQGLEWMGIINPVGGSTSYAQKFQGRVTMTRDTSTSTVYMELSSLRSEDTAVYYCARDPSGIAAAGPASRYYYGMDVWGQGTTVTVSS VL: EIVMTQSPATLSVSPGERATLSCRASQSVSSNLAWYQQKPGQAPRLLIYGASTRATGIPARFSGSGSGTEFTLTISSLQSEDFAVYYCQQARLGPWTFGGGTKVEIK | – | – | 0.678 | Kd [1]: 0.07 nM |

Now from value to binder, other results behind:

| Kd [3] [nM] | Kd [2] [nM] | Kd [6] [nM] | Binder | further results |
| --- | --- | --- | --- | --- |
| – | – | 3.29 | S-22-9 Fab (Fab, V domains shown, Fab by papain digestion) VH: QVQLVQSGAEVKKPGSSVKVSCKASGGTFRNYAISWVRQAPGQGLEWMGGIIPIGGWANYAQKFQGRVTITADESTSTAYMELSSLRSEDTAVYYCARQGRKTGYYYYYGMDVWGQGTTVTVSS VL: DIQMTQSPSTLSASVGDRVTITCRASQSISSWLAWYQQKPGKAPKLLIYKASSLESGVPSRFSGSGSGTEFTLTISSLQPDDFATYYCQQADGHITFGGGTKVEIK | Kd [4]: 0.0048 nM; Kd [5]: 0.575 nM |
| 0.81 | 5.12 | – | S-22-9 (antibody, V domains shown, IgG) VH: QVQLVQSGAEVKKPGSSVKVSCKASGGTFRNYAISWVRQAPGQGLEWMGGIIPIGGWANYAQKFQGRVTITADESTSTAYMELSSLRSEDTAVYYCARQGRKTGYYYYYGMDVWGQGTTVTVSS VL: DIQMTQSPSTLSASVGDRVTITCRASQSISSWLAWYQQKPGKAPKLLIYKASSLESGVPSRFSGSGSGTEFTLTISSLQPDDFATYYCQQADGHITFGGGTKVEIK | – |
